Article PMC4979544 (Structure (London, England : 1993), 2016)
Ends that are not written are not given here.

How the values were obtained:
Test in all cases: fluorescence polarisation
[1] = target: T1, FRFVQELASKEVC-fluorescein peptide
T1 peptide: FRFVQELASKEVC(fluorescein‑5‑maleimide)

[2] = target: T2, WRFVQELASKEVC-fluorescein peptide
T2 peptide: WRFVQELASKEVC(fluorescein‑5‑maleimide)

[3] = target: T3, YRFVQELASKEVC-fluorescein peptide
T3 peptide: YRFVQELASKEVC(fluorescein‑5‑maleimide)

[4] = target: T4, A. tumefaciens ClpS2 (A. tumefaciens, UniProt Q8UD95 1-103, 35S-labeled in the peptide blots only)
T4 sequence (looked up): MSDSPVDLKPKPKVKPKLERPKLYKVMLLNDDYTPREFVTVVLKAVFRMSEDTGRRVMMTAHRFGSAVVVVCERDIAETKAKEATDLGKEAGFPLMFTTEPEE

Row | Binder | ΔΔG against parent ClpS2 [1] [kcal/mol] | ΔΔG against parent ClpS2 [2] [kcal/mol] | ΔΔG against parent ClpS2 [3] [kcal/mol] | Kd [4] [µM]
1 | A. tumefaciens ClpS2 L28A (natural protein) MSDSPVDLKPKPKVKPKLERPKLYKVMALNDDYTPREFVTVVLKAVFRMSEDTGRRVMMTAHRFGSAVVVVCERDIAETKAKEATDLGKEAGFPLMFTTEPEE | 0.91 | 0.3 | -0.26 | –
2 | A. tumefaciens ClpS2 R36M (natural protein) MSDSPVDLKPKPKVKPKLERPKLYKVMLLNDDYTPMEFVTVVLKAVFRMSEDTGRRVMMTAHRFGSAVVVVCERDIAETKAKEATDLGKEAGFPLMFTTEPEE | -0.17 | -0.3 | -0.74 | –
3 | LRFVQELASKEVC(fluorescein‑5‑maleimide) [LRFVQELASKEVC-fluorescein peptide] | – | – | – | > 800
